Source: US20250277030A1 (Zymeworks, published 2025)

Legend:
[1] = target: T1, human sodium-dependent phosphate transporter 2B (NaPi2b) (human, UniProt O95436 1-690); experiment: flow cytometry on IGROV-1 cells (endogenous NaPi2b), 24 h at 4 C, anti-human IgG Fc AF647 detection
T1 construct: UniProt ID is given as 095436 [sic]; also called hNaPi2b; Hu NaPi2b
T1 sequence: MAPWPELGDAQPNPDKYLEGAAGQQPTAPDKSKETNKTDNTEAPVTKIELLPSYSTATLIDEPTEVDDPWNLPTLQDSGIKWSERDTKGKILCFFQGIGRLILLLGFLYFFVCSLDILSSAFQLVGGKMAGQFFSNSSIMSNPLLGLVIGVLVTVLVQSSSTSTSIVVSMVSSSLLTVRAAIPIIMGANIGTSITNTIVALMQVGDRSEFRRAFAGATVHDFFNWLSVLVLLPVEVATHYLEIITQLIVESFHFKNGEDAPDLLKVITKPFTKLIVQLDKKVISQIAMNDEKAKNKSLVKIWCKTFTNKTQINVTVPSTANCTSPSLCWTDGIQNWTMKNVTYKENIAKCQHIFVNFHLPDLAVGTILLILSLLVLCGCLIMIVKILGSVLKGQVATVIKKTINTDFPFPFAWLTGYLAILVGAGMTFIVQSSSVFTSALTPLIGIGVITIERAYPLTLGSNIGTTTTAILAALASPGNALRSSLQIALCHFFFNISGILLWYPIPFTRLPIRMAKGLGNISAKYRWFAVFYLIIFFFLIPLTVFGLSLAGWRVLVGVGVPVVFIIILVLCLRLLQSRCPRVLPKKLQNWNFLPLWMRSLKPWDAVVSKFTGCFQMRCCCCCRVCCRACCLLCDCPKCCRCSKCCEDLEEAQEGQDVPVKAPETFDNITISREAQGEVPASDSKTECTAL
Description: (§1) Briefly, cells were seeded at 50,000 cells/well in conical-bottom 96-well plates and treated with test antibody for 24 hours at 4° C. to prevent internalization. […] Following incubation, cells were washed and stained with anti-Human IgG Fc AF647 conjugate (Jackson Immuno Research Labs, West Grove, PA; Cat. No. 109-605-098) at 4° C. for 30 min. Following incubation and washing, fluorescence was detected by flow cytometry on a BD LSRFortessa™ Cell Analyzer (BD Biosciences, Franklin Lake, NJ) with 1,000 minimum events collected per well. The AF647/APC-A GeoMean (fluorescence signal geometric mean, proportional to anti-Human AF647 binding) was calculated for the live cell population using FlowJo™ Version 10.8.1 (BD Biosciences, Franklin Lake, NJ) and plotted for each test antibody using GraphPad Prism Version 9 (GraphPad Software, San Diego, CA).
(§2) The ability of the humanized antibody variants v38591 and v29456 to bind to NaPi2b expressed on cells was assessed on endogenous NaPi2b-expressing tumor cell lines IGROV-1 (ovarian adenocarcinoma) and TOV-21G (ovarian carcinoma) by flow cytometry.
(§3) Cellular binding was performed according to methods described in Example 13.

cynomolgus monkey NaPi2b = target: T2, cynomolgus monkey NaPi2b (cynomolgus monkey, UniProt O95436 1-690 (human entry)); experiment: flow cytometry, HEK293-6e cells transfected with cynomolgus NaPi2b; apparent Kd
T2 construct: Transiently expressed on HEK293-6e cells; also called Cyno NaPi2b
T2 chain: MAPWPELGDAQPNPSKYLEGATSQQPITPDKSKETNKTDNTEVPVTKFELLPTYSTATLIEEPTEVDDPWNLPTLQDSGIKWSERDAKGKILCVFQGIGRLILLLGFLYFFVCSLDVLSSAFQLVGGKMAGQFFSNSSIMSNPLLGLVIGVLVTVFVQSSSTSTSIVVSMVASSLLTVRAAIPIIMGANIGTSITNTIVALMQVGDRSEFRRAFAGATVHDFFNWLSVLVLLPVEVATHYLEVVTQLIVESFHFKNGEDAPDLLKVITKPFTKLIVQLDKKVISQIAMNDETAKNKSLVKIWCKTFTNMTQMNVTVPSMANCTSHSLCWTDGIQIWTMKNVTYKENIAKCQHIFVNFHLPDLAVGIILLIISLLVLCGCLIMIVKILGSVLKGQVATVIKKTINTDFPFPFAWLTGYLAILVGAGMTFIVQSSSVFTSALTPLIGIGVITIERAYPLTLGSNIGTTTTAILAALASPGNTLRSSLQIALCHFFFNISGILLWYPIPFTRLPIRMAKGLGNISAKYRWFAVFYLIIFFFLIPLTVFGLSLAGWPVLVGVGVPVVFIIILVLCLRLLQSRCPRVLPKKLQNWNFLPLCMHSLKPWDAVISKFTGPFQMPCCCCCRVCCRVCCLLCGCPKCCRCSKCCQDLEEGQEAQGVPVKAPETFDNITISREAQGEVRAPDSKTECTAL
Description: The binding cross-reactivity of humanized antibody variant v29456 to human, cynomolgus and mouse NaPi2b was assessed by flow cytometry using HEK293-6e transfected cells.
(§4) Briefly, HEK293-6e cells were transfected for ˜24 hours to transiently express human NaPi2b, cynomolgus or mouse NaPi2b, at 1 μg of DNA per 1 million cells. Following transfection, 50,000 cells per well were seeded in V-bottom 96-well plates and incubated with 200 nM of primary antibody for 18-24 hours at 4° C. to prevent internalization. Post-incubation, cells were washed and stained with anti-Human IgG Fc AF647 conjugate (Jackson Immuno Research Labs, West Grove, PA, Cat. No. 109-605-098, Lot. No. 124868) at 4° C. for 1 hour. Following staining and washing, fluorescence was detected by flow cytometry on BD LSRFortessa™ Cell Analyzer (BD Biosciences, Franklin Lake, NJ) with 10,000 minimum events collected per well. The AF647/APC-A GeoMean (fluorescence signal geometric mean, proportional to anti-Human AF647 binding) was calculated for the live singlet cell population for each primary antibody using FlowJo™ v8 software (BD Biosciences, Franklin Lake, NJ). The Bmax and Kd of each primary antibody were calculated using GraphPad Prism Version 9 (GraphPad Software, San Diego, CA)

[2] = target: T1, human sodium-dependent phosphate …; experiment: cell-based or functional assay
[3] = target: T1, human sodium-dependent phosphate …; experiment: flow cytometry on IGROV-1 cells (endogenous NaPi2b), 4 C, anti-human IgG Fc AF647 detection
Description: as §4
The ability of ADCs to bind to cells expressing NaPi2b was assessed. […] Binding to endogenous high NaPi2b-expressing cell lines IGROV-1 and HCC-78 was assessed by flow cytometry according to methods described in Example 5.

[4] = target: T1, human sodium-dependent phosphate …; experiment: flow cytometry, IGROV-1 cells (endogenous NaPi2b); apparent Kd
Description: as §1, §2, §3

B1: v29456 humanized anti-NaPi2b antibody (H1L2) (antibody, human IgG1, kappa)
heavy: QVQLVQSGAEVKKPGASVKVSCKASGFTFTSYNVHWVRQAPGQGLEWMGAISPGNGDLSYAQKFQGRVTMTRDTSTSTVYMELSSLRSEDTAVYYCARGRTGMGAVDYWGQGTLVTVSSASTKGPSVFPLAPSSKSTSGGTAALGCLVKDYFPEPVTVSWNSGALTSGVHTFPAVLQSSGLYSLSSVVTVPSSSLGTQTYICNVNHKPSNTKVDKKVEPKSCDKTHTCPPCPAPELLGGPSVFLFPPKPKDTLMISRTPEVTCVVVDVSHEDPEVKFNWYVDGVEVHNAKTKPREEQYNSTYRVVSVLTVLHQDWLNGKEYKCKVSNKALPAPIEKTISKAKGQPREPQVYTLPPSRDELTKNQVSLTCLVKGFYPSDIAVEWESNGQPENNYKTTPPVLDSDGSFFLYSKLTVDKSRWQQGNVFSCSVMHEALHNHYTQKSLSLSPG
light: DVQMTQSPSSLSASVGDRVTITCRASQDVYSYLNWYQQKPGKAVKLLIYYTSRLQSGVPSRFSGSGSGTDYTLTISSLQPEDFATYYCQQYNIFPWTFGQGTKLEIKRTVAAPSVFIFPPSDEQLKSGTASVVCLLNNFYPREAKVQWKVDNALQSGNSQESVTEQDSKDSTYSLSSTLTLSKADYEKHKVYACEVTHQGLSSPVTKSFNRGEC
- EC50 (read off the curve) [1]: ~1 nM
- Kd (cynomolgus monkey NaPi2b): 3.2 nM
- Internalized Fluorescence Fold-Over Palivizumab, HCC-78, 5 hrs [2]: 25.3 fold
- Internalized Fluorescence Fold-Over Palivizumab, HCC-78, 24 hrs [2]: 59.9 fold
- Internalized Fluorescence Fold-Over Palivizumab, NCI-H441, 5 hrs [2]: 2.4 fold
- Internalized Fluorescence Fold-Over Palivizumab, NCI-H441, 24 hrs [2]: 4 fold
- EC50 (read off the curve) [3]: ~0.6 nM
- Kd [4]: 1.28 nM
